Biological target: ER peptide mimic
Assay: immunostaining of ER peptide mimic spots on a membrane, colour scored 1-4+

- Staining intensity (1-4+): 4 1-4+ scale
Substance: 1D5 anti-human estrogen receptor mouse monoclonal antibody
